The source of these data is FireProtDB (doi:10.1002/pro.5560031114).

Values joined by “and” are separate entries in the source; they are usually repeats but may differ in a detail not shown here. Equal entries are not always repeated.

For the series the following is noted: Escherichia coli, pH 7, Thermal, DSC, Na phosphate 100 mM, NaCl 200 mM, reversible: yes, whole UniProt chain shown.

B1: Regulatory protein rop wild type, P03051 (protein)
chain: MTKQEKTALNMARFIRSQTLTLLEKLNELDADEQADICESLHDHADELYRSCLARFGDDGENL
Take B1: the “unfolding enthalpy (calorimetric)” value is 114 kcal/mol and 83.1 kcal/mol and 94.3 kcal/mol; the “unfolding enthalpy (van 't Hoff)” value is 132 kcal/mol and 79.8 kcal/mol and 104 kcal/mol. Where the note is “74.6 °C”, the unfolding free energy is 3.1 kcal/mol and 5.6 kcal/mol.
